Assay results published in the supplement of paper PMC10126150.
± gives the standard deviation of the averaged measurements.

Tested on: ATP
Assay: switch fluorescence ratio, 500 uM ATP over buffer (Cy3 cluster intensity, sum of 5 cycles each) (fold (ratio)); higher = stronger signal-on switching upon ATP binding; sequences stand for … in TCGTCGGCAGCGTCAGATGTGTATAAGAGACAGTTTTTTTTTTTTTTTTTTTTTTTTT…TC
Conditions: aptamer strand: ATP DNA aptamer (quencher-CACCTGGGGGAGTATTGCGGAGGAAGG + anchor), 100 nM annealed; ATP concentration: 500 uM
How it was run: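 Values give the fluorescence ratio for each switch-domain sequence, averaged from per-cluster ratios of summed target-cycle to summed buffer-cycle Cy3 intensity. The Cy3-labelled switching-strand clusters sat on a modified Illumina MiSeq flow-cell, were annealed to 100 nM quencher-labelled ATP aptamer, and were imaged in selection buffer, then after 15 min with 500 uM ATP at 22 °C. Five cycles ran with NaOH stripping and re-annealing between them, and clusters outside 100-1000 RFU were excluded.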
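Note: ATP exposure 15 min at 22 °C before imaging.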

| Sequence | switch fluorescence ratio |
| --- | --- |
| TTTGTGAAAG | 1.008 ± 0.006 |
| TTTGTGAGGT | 1.01 ± 0.034 |
| TTTGTGATG | 0.959 ± 0.027 |
| TTTGTGATGG | 0.954 ± 0.026 |
| TTTGTGCCTT | 1.1 ± 0.12 |
| TTTGTGGGGC | 1.01 ± 0.042 |
| TTTGTGGTAG | 0.984 ± 0.011 |
| TTTGTGGTCC | 0.98 ± 0.039 |
| TTTGTGTAGC | 1 ± 0.038 |
| TTTGTGTATA | 0.976 ± 0.057 |
| TTTGTGTGTT | 1.02 ± 0.024 |
| TTTGTGTTAG | 0.9983 ± 0.0082 |
| TTTGTGTTTG | 0.999 ± 0.016 |
| TTTGTTAATA | 1.02 ± 0.014 |
| TTTGTTACAG | 1 ± 0.031 |
| TTTGTTACTT | 1.01 ± 0.021 |
| TTTGTTATTT | 1.01 ± 0.023 |
| TTTGTTCACG | 0.991 ± 0.01 |
| TTTGTTCCTC | 1.103 ± 0.005 |
| TTTGTTCGGC | 1 ± 0.033 |
| TTTGTTGTAC | 1.06 ± 0.058 |
| TTTGTTGTTT | 0.986 ± 0.013 |
| TTTGTTTCT | 0.968 ± 0.01 |
| TTTGTTTGCT | 0.989 ± 0.025 |
| TTTGTTTTC | 1.02 ± 0.018 |
| TTTGTTTTCT | 1.01 ± 0.032 |

| Sequence | switch fluorescence ratio |
| --- | --- |
| TTTTAAAAAA | 1 ± 0.026 |
| TTTTAAACGT | 1.04 ± 0.039 |
| TTTTAAAGAT | 0.977 ± 0.021 |
| TTTTAAAGGG | 0.993 ± 0.045 |
| TTTTAAAGTC | 1.02 ± 0.03 |
| TTTTAACAGG | 1.02 ± 0.08 |
| TTTTAACTCT | 1.05 ± 0.015 |
| TTTTAACTGT | 1.01 ± 0.038 |
| TTTTAAGGAA | 1.04 ± 0.071 |
| TTTTAAGGGA | 0.998 ± 0.014 |
| TTTTAAGGGT | 0.999 ± 0.036 |
| TTTTAATTCA | 1 ± 0.015 |
| TTTTACCACT | 1.0422 ± 0.00058 |
| TTTTACCCTT | 1.04 ± 0.04 |
| TTTTACGCAG | 1.03 ± 0.044 |
| TTTTACGGGG | 1.02 ± 0.03 |
| TTTTACTGAG | 1.04 ± 0.025 |
| TTTTACTTAC | 1.25 ± 0.059 |
| TTTTAGAATT | 0.996 ± 0.013 |
| TTTTAGACTG | 1.05 ± 0.039 |
| TTTTAGAGTT | 0.982 ± 0.013 |
| TTTTAGCAGA | 1.06 ± 0.016 |
| TTTTAGCTTC | 1.03 ± 0.017 |
| TTTTAGGAAT | 0.997 ± 0.027 |
| TTTTAGGAGT | 0.989 ± 0.037 |
| TTTTAGGCCG | 1.03 ± 0.042 |

| Sequence | switch fluorescence ratio |
| --- | --- |
| TTTTAGGGGC | 1.13 ± 0.23 |
| TTTTAGGGTG | 1.07 ± 0.072 |
| TTTTAGGTGC | 1.09 ± 0.099 |
| TTTTAGTCAT | 1.01 ± 0.014 |
| TTTTAGTGAC | 1.022 ± 0.0053 |
| TTTTAGTT | 0.993 ± 0.039 |
| TTTTATAAGG | 1.01 ± 0.023 |
| TTTTATAATT | 1.04 ± 0.089 |
| TTTTATATTT | 1 ± 0.034 |
| TTTTATCCTT | 1 ± 0.028 |
| TTTTATCTAA | 0.988 ± 0.048 |
| TTTTATCTGA | 1.02 ± 0.028 |
| TTTTATGAGG | 0.973 ± 0.03 |
| TTTTATGC | 1.01 ± 0.061 |
| TTTTATTAAT | 0.978 ± 0.04 |
| TTTTATTACT | 2.27 ± 1.8 |
| TTTTATTATC | 0.9986 ± 0.0079 |
| TTTTATTCCT | 1.04 ± 0.037 |
| TTTTATTCGG | 0.9614 ± 0.0095 |
| TTTTATTTA | 0.9701 ± 0.0072 |
| TTTTATTTAT | 1.02 ± 0.053 |
| TTTTATTTCG | 1.03 ± 0.068 |
| TTTTCAAAAA | 1.13 ± 0.19 |
| TTTTCAAGGT | 0.992 ± 0.019 |
| TTTTCACCGT | 1.06 ± 0.027 |
